In patent US20020016443A1, “Antiproliferative factor” (priority 1996, published 2002):

Test system: APF activity on primary normal bladder epithelial cells
Experiment: Blocking of APF antiproliferative activity by recombinant growth factors (^3H-thymidine incorporation)
Assay type: cell-based, human
Protocol: ^3H-Thymidine Incorporation. Primary normal adult human bladder epithelial cells (HBE) were grown from biopsies obtained at autopsy from patients who had no history of bladder disorder. HBE cells were plated at a density of 1×10^4 cells/well onto 96 well tissue culture plates and incubated at 37° C. overnight (resulting in approximately 60% confluence the following day). The medium was then changed to MEM containing only 1% glutamine and 1% antibiotic/ antimycotic solution, and the cells were incubated at 37° C. overnight. […] Cells were then trypsinized, and insoluble cell contents harvested and methanol-fixed onto glass fiber filter paper, as previously described^62; the amount of radioactivity incorporated was determined as counts per minute using a Beckman LS 3801 scintillation counter. […]
To determine whether the antiproliferative effect of the APF on bladder epithelial cells might be due to a decrease in HB-EGF production, primary normal bladder epithelial cells were simultaneously incubated with varying levels of recombinant HB-EGF, EGF, or IGF1 and low molecular weight urine fractions from IC patients. […] This effect was evident using a concentration of HB-EGF (10 ng/ml) in the range previously determined for normal controls (2-22 ng/ml, mean 6.33 ng/ml) 12 as well as higher concentrations (30 and 100 ng/ml). […]

B1: heparin-binding epidermal growth factor-like growth factor (protein, UniProt Q99075 63-148, looked up)
Heparin-binding EGF-like …: DLQEADLDLLRVTLSSKPQALATPNKEEHGKRKKKGKGLGKKRDPCLRKYKDFCIHGECKYVKELRAPSCICHPGYHGERCHGLSL
inhibition of antiproliferative activity of HPLC-purified APF (10 ng purified APF, 30 ng/ml of HB-EGF, normal and IC patient cells): inhibited for 2 of 3 APF specimens
inhibition of IC urine antiproliferative activity by recombinant growth factor (co-incubation with low molecular weight IC urine fractions, HB-EGF 10, 30 and 100 ng/ml, EGF, IGF1 up to about 12 and 25 fold normal levels): inhibited by HB-EGF in a dose-dependent manner
